This assay deals with IgE antibody in the serum of a fish-allergic patient. The assay can be described thus: Immunoblotting of two-dimensional electrophoresis patterns of fish meat proteins with patient serum. The class given is binding, human. The following applies: for spots detected by immunoblotting, different from spots with serum of non-fish-allergic subject: proteins contained in salmon meat; for specific binding to IgE antibodies from fish-allergic patients: spots in two-dimensional electrophoresis gel of proteins in fish, patients diagnosed with immediate-type allergy. As for the experimental part:
Proteins contained in fish were analyzed by the aforementioned technique to identify antigens of an allergy to fish. To be specific, proteins were extracted from fish meat and subjected to two-dimensional electrophoresis under the conditions described below.
The electrophoresis in the first dimension was isoelectric focusing, which was performed using isoelectric focusing gels with a gel-strip length of 5 to 10 cm and a gel pH range of 3 to 10. The pH gradient of the gels in the direction of electrophoresis was as follows: with the total gel-strip length being taken as 1, the gel-strip length up to pH 5 was “a=0.15 to 0.3”, the gel-strip length from pH 5 to 7 was “b=0.4 to 0.7”, and the gel-strip length above pH 7 was “c=0.15 to 0.3”. More specifically, the isoelectric focusing was performed using the IPG gels, Immobiline Drystrip (pH3-10NL), produced by GE Healthcare Bio-Sciences Corporation (hereinafter abbreviated as “GE”). The electrophoresis system used was IPGphor produced by GE. The maximum current of the electrophoresis system was limited to 75 μA per gel strip. The voltage program adopted to perform the first-dimensional isoelectric focusing was as follows: (1) a constant voltage step was performed at a constant voltage of 300 V until the volt-hours reached 750 Vhr (the current variation width during electrophoresis for 30 minutes before the end of this step was 5 μA); (2) the voltage was increased gradually to 1000 V for 300 Vhr; (3) the voltage was further increased gradually to 5000 V for 4500 Vhr; and then (4) the voltage was held at a constant voltage of 5000 V until the total Vhr reached 12000.
The electrophoresis in the second dimension was SDS-PAGE, which was performed using polyacrylamide gels whose gel concentration at the distal end in the direction of electrophoresis was set to 3 to 6% and whose gel concentration at the proximal end was set to a higher value than that at the distal end. More specifically, the SDS-PAGE was performed using NuPAGE 4-12% Bris-Tris Gels (IPG well, Mini, 1 mm) produced by Life Technologies. The electrophoresis system used was XCell SureLock Mini-Cell produced by Life Technologies. The electrophoresis was run at a constant voltage of 200 V for about 45 minutes using an electrophoresis buffer composed of 50 mM MOPS, 50 mM Tris base, 0.1% (w/v) SDS and 1 mM EDTA.
Identification of antigens by immunoblotting was carried out by taking all the steps up to the step of “Second-dimensional SDS-PAGE” as described above in Example 1, followed by the steps of “Transfer to membrane”, “Immunoblotting” and “Analysis” as described below.
To be specific, proteins in the second-dimensional electrophoresis gels were transferred to a membrane (PVDF membrane) according to the following procedure. • (1) The PVDF membrane was immersed in 100% methanol followed by milliQ water, and then moved into the transfer buffer to hydrophilize the PVDF membrane. • (2) After sponge, filter paper, the second-dimensional electrophoresis gels treated by second-dimensional SDS-PAGE, the hydrophilized PVDF membrane, filter paper, and sponge were put in place in this order, the transfer system was energized at a constant voltage of 30 V for one hour. Immunoblotting
Immunoblotting of the membrane was carried out using, as a primary antibody, a serum sample from patient 1 with a fish allergy or a serum sample from a non-fish-allergic subject. This fish-allergic patient 1 was a patient diagnosed with immediate-type allergy to fish. […]

Where [1] appears, read: serum from fish-allergic patient 3 (FIG. 1B right).
Where [2] appears, read: serum from fish-allergic patient 2 (FIG. 1B left).

B1: Desmin (fragment) (protein)
chain: ISSYRRTFGSGIGSTPGMSSMFSHGGRGSSGSAHMSSRVYEMTKSSARPSYSSGSIRSSSGGAMRSYAGMGEKLDFNLADATNRDFLDTRTNEKAELQHLNDRFASYIEKVRFLEQQNATLVVEIERLRGHEPTRVAEMYEEEMRELRRQVDGMSNDRARMEVERDNLADDLQKLKLRLQEVIHQREEAENNLSAFRADVDSATLARLDLERRIESLQEEITFLKKIHEEEIHELTSQMQETSVQVQMDMSKPDLTVALRDIRMQYEGIAAKNISEAEDWYKSKVSDLNQAVNKNNDALRQAKQESMEFRHQIQSYTCEIDSLKGTNESLLRQMREMEDRLGNEAGGYQDSVTRLEAEIAKMKDEMARHLREYQDLLNVKMALDIEIATYRKLLEGEESRITVSGSKSSHSGSHSAASLYSTVGFRETSPDVGRSAEVHSKKTVLIKTIETRDGEVVSE
modifications: Desmin (fragment)
B1: the “specific binding to IgE antibodies from fish-allergic patients” value (shortened to “specific binding”) is reported as “specific binding to IgE antibodies”. Besides, under setting [1], the “spots detected by immunoblotting, different from spots with serum of non-fish-allergic subject” value is “detected”.

B2: Myosin-binding protein C, fast-type-like (protein)
chain: MPEAADAVKPEGEEGEAPAEAEENTAEDDEPLPEGEEGAHQSQEITGLFLQHPETTVAITGTDIVFTAKVDSTTLSRKPTIKWLKGKWLDLGSKAGKHMQFKETFDRATKIYTWDMKIIKVVPGDAGAYRCEVTSKDKCDSSAFDISVEAVQIEEEHDSLAAFKRTDAGEDEGSLDFSALLKATKKKKKPVVDEEKADVWEILKNAQPSEYEKIAFEYGITDLRGLLKRLKKMKTVEPKHSDAFLKRMESAYSVDKGKKIVLQVEVVDPNAQVKWLKNGQEIKSSAKYIIESVGNIRTLTINKCSLADDAAYECVIGEEKSFTEVFVKEPPVTITKLLDDYHVVVGERVEFEVEVSVEGAHVNWMFEDQELSRDTHKYRFKKDGLKHMLIIQEATLDDIGMYWCFTNGGRTKGELEVEEKELEVLQNIADLTVKAEDQAMFKCEVSDEKVTGKWLKDGVEVLPSSRIKLTHIGRIHRLTIDDVKPEDAGDYTFIPDGYALSLSAKLNFLEIKIDYVPRQEPPKIHLDTTGNMVSQNTIIVVAGNKLRLDVEISGEPPPTVVWAKGDTAITAVEGRVRTESRKDLSCFVIEGAEREDEGNYTIIVTNPAGEDKAHLFVKIVDVPDCPENVKCTSVGEDCATMVWDPPKFDGGAPVTGYLMERKKKGSTRWTKLNFDVYEGVTYEAKRMIEGVLYEMRVYAVNGIGMSQPSLNSKPFMPIAATSEPLGLKVHDVTDTTCTLKWLAPEKIGAGGLDGYVIEYCKEGDTEWVVANTELVERQNYTVRNLPTAEKINFRVVAVNIAGRSPPTGLSQPVTIREIVELPKIRLPRYLRQKYIRRVGDKINLTIPFQGKPRPKVQWYKDGEELDTRVASIRNSEVDSILFIRSAERSHSGKYELVLQIENMEARAILEIRIVEAPGPPEVVKVTDVWGFNAALEWKPPKDDGNCEITGYTIQKADKKTNEWFTIYEHNRRTNCTASDLIMGNEYMFRVFSENLVGKSEDFCLSKDTAIIPKIGLEYNPPPFKEKDMQSAPKFIQPLLDRSVVAGYSTTISSAVKTCPKPKIRWLRNKIPLDENPRFLMQNNQGVLTLNIRKPSQYDGGKFTCKAINSLGEDVVECTLLVRALKDKEDGDEK
modifications: myosin-binding protein C, fast-type-like
With B2, the “specific binding” value was “specific binding to IgE antibodies”. The “spots detected by immunoblotting, different from spots with serum of non-fish-allergic subject” value under setting [2] is recorded as “newly detected”.

B3: Glycogen phosphorylase, muscle form-like (protein)
chain: MSKPLSDHDKRKQISVRGLAGVENVAELKVAFNRHLHFTLVKDRNVANKRDYYFALANTVRDHLVGRWIRTQQYYYEKDPKRVYYISLEFYMGRTLQNTMVNLALENACDEAIYQLGLDMEELEDMEEDAGLGNGGLGRLAACFLDSMASLGLAAYGYGIRYEFGIFNQKIVNGWQVEEADDWLRYGNPWEKARPEYMRPVKFYGRTEHTPDGVKWVDTQVVLALPYDTPIPGYRNNIVNTMRLWSAKAPCDFNLKDFNVGGYIQAVLDRNLCENISRVLYPNDNFFEGKELRLKQEYFVVAATLQDVVRRFKASKFGSREIVRTDFAELPNKVAIQLNDTHPAMAIPELMRVLVDEEKLGWDKAWDVCVRTCAYTNHTVLPEALERWPIDLFHHLLPRHLEIIYEINRRFMEYVASKFPGDNDRLRRMSLIEEGGCKKVNMAHLCIVGSHAVNGVARIHSEILIATLFKDFYELDPHKFQNKTNGITPRRWLVMCNPGLAEVIAEKIGEEFIRDLDQLKRLLKFVNDDAFIRDIAKVKQENKLKFAVHLEEHYKVKINPQSMFDFQVKRIHEYKRQLLNCLHMITYYNRIKKEPNKHWTPRTIMVGGKAAPGYHTAKMIIRLITAIGEVVNHDPVVGDRLKVIFLENYRVTLAEKAIPSADLSEQISTAGTEASGTGNMKFMLNGALTIGTMDGANVEMAEEAGEENFFIFGMRVEDVDAMDAGKGYHASEYYNRIPELKQAMDQIAGGFFSPKQPDLFKELVDLLMHHDRFKVFADYEAYIKCQDKVNQLYKNPKEWTKMVIHNIAGCGKFSSDRTIAQYAREIWGMEPSLEKIPAPDEKLK
modifications: glycogen phosphorylase, muscle form-like
Regarding B3, the “specific binding” value is given as “specific binding to IgE antibodies”. In addition, the “spots detected by immunoblotting, different from spots with serum of non-fish-allergic subject” value under setting [2] is recorded as “newly detected”.

B4: Myosin binding protein H-like (protein)
chain: MPAKPAPIKKAAPKEPAPKKEEAPAPAPAEAAPAEVAPPAEVEAPPAEAAPAEAAAPAEAAPTEEKAPAEPAPEQPKAPTPPPPDEPTSEPLEVTVDDKSDTSVTITWRPPKTIPANSGLDGYTVEITKEGTEDWKAANEDLTVSCRYVIKNQTTGDRLLIRVVAVNPGGRSPPATIADPVLVKEVGARPKVRLPRFLRQRYVKKVGEKINIVIPYSGKPKPVVSWLKDGQPLDSKRANIRTSDRDSILFIRQAERVDSGSYEMCVKVDDFEDKAAIIIQIIELPGPPASIKIVDVWGFNVALEWTVPKDNGNTEITGYTVQKADKKTGDWFNILEHYARLNATISDLIMGNTYTFRVFAENKCGLSEECAVTKGEATIVKEVIDYKPTPFVEHDFTEAPKFTTVLNDRSTTVGYSTKLLCSVRGCPKPKIMWMKNKMILNNMDNPKYRMISTGGICTLEIRKPGPYDGGEYVCRAENTLGKVDTGCKLEVRKPGQADADKDKKEQ
modifications: Myosin binding protein H-like
For B4, the “specific binding” value is given as “specific binding to IgE antibodies”. Further, the “spots detected by immunoblotting, different from spots with serum of non-fish-allergic subject” value under setting [1] is given as “detected”.

B5: Alpha-actinin-3 (protein)
chain: MTAIETQVQYGSYMTSEQVYMTQEDDWDRDLLLDPAWEKQQRKTFTAWCNSHLRKAGTQIENIEEDFRNGLKLMLLLEVISGERLPKPDKGKMRFHKIANVNKALDFICSKGVKLVSIGAEEIVDGNVKMTLGMIWTIILRFAIQDISVEETSAKEGLLLWCQRKTAPYRNVNVQNFHISWKDGLALCALIHRHRPDLIDYSKLRKDDPMGNLNTAFEVAEKYLDIPKMLDAEDIVNTPKPDEKAIMTYVSCFYHAFAGAEQAETAANRICKVLAVNQENEKLMEEYEKLASELLEWIRRTIPWLENRVAEQTMRAMQQKLEDFRDYRRVHKPPKVQEKCQLEINFNTLQTKLRLSNRPAFMPSEGKMVSDIANAWKGLEQVEKGYEEWLLTEIRRLERLDHLAEKFKQKSSLHESWTSGKVELLSMKDYESASLMEIRALMRKHEAFESDLAAHQDRVEQIAAIAQELNELDYHDAVTINARCQGICDQWDNLGTLTQKRRDSLERVEKLWETIDQLYLEFAKRAAPFNNWMDGAMEDLQDMFIVHSIEEIQSLITAHDQFKATLPEADKERVATMGIQNEIVKIAQTYGIKLSGVNPYTNLSPQDITDKWDAVKHLVPLRDQMLQEEVARQQSNERLRRQFAAQANIIGPWIQTKMEEISHVSVDIAGSLEEQMSNLKQYEQNIINYKCNIDKLEGDHQLSQESLIFDNKHTNYTMEHVRVGWEQLLTTIARTINEVENQILTRDAKGISQEQLNEFRASFNHFDRKRNGMMDPDDFRACLISMGYDLGEVEFARIMTLVDSNNTGVVTFQAFIDFMTRETAETDTADQVMASFKILASDKTYITVEELRRELPPEQADYCISRMTSYIGSGAPPGALDYISFSSALYGESDL
modifications: PREDICTED: alpha-actinin-3
On to B5, for which the “specific binding” value is reported as “specific binding to IgE antibodies”.
